The source of these data is publication PMC11373624, “Development and preclinical characterization of a novel radiotheranostic EphA2-targeting bicyclic peptide” (Theranostics, 2024).

SMILES strings stand for the structures. Numbered stars: 1 amine (or outer) side, 2 acyl side, 3 side chain; on linkers, the order of the positions; unused ones are H or OH. Bridge positions count the residues as written; N and C are the ends. Square brackets hold non-standard residues; d marks the D form. Peptide text beside a SMILES is read from it. * marks the point of attachment. DOTA = O=C(O)CN1CCN(CC(=O)O)CCN(CC(=O)*)CCN(CC(=O)O)CC1; TATA = O=C(CC[*:1])N1CN(C(=O)CC[*:2])CN(C(=O)CC[*:3])C1; Hyp = O=C(O)[C@@H]1C[C@@H](O)CN1; hArg = N=C(N)NCCCC[C@H](N)C(=O)O; Cba = N[C@@H](CC1CCC1)C(=O)O; βAla = NCCC(=O)O; Sar = CNCC(=O)O

Series [1] in a line: in vivo. Conditions: male, athymic nude, mouse. The method, then: (§1) SPECT/CT imaging was performed in three 5- to 8-week-old male athymic nude mice (Janvier Labs, UK) which were subcutaneously inoculated on the right upper flank with 5 x 10^6 PC-3 cells (1:1 in PBS:Matrigel). Tumor growth was monitored, and once size was approx. 200 - 500 mm^3, mice were injected intravenously via tail vein with 230 pmol of [^111In]In-BCY18469 (5.3 ± 0.2 MBq). Mice were imaged under isoflurane anesthesia using whole-body static SPECT followed by a CT at each timepoint (30 min SPECT scan time starting at 1h and 24h p.i.). Reconstructed images were generated in units of activity. Namely, the values assigned to the voxels (volume elements) comprising the 3D reconstructed SPECT images were in units of MBq or equivalent. Reconstructed images were processed with VivoQuant (Invicro). Whole body maximum intensity projection (MIP) images were generated using VivoQuant.

In the next series the test system is PC-3 tumor xenograft. The experiment in a line: in vivo. Conditions: male, athymic nude, mouse. The method, then: as §1
A short description of series [2]: in vitro. The series is classed as in vitro ADME. To be noted: human, plasma, plasma protein binding. The method, then: To determine binding to plasma proteins, BCY18469 was labeled with ^68Ga (apparent molar activity 1 GBq/µmol). Thereafter, 10 µL of the labeling mixture were added to 100 µL of mouse or human plasma (mouse: BioIVT, United Kingdom, human: Sigma Aldrich, Germany). The mixture was left for 15 min at room temperature. Afterwards, the plasma was loaded into an ultrafiltration device (Amicon Ultra 0.5ml - 30 kDa, Merck, Germany) and centrifuged at 14,000 rpm for 30 min at r.t. The filtrate and the membrane were measured in a gamma counter (Wizard2, Perkin Elmer, Germany). The amount of plasma-bound compound was calculated based on the counts in the […] relative to the total counts (filtrate + membrane).

A short description of series [3]: in vitro. The series is classed as in vitro ADME. To be noted: plasma. The method, then:
Determination of stability in plasma was performed with the ^177Lu-labeled peptide. 10 µL of the labeled compound were added into human or mouse plasma (mouse: BioIVT, United Kingdom, human: Sigma Aldrich, Germany) and incubated at 37 °C. Aliquots were taken at different time points during incubation (1, 6, 24, 48 and 72 h) to which acetonitrile (30 μL) was added in order to precipitate plasma proteins. After centrifugation at 13,000 rpm for 5 min at r.t. the supernatant was taken and analyzed via HPLC.

A further series deals with HT1080 cells. The experiment in a line: Cell surface binding and internalization assay. The series is classed as cell-based, human. Conditions: listed as 68Ga-BCY18469. The method, then: To assess internalization and specificity, HT1080 cells (10^5 cells/well) were seeded in a 24-well plate coated with poly-L-lysine one day before the experiment. […] To determine specific uptake, 'cold' (non-radiolabeled) BCY18469 was added to half of the wells at an excess concentration of 10 µM/well or, alternatively, the cells were kept at 4 °C during the experiment. Following the incubation, the cells were thoroughly rinsed with cold PBS (3 x 1 mL). Subsequently, surface bound radioactivity was removed by washing with 50 mM glycine (pH 2.8, 2 x 500 µL). Finally, the internalized fraction was determined by lysing the cells with 0.5 M NaOH (500 µL). All fractions were collected and measured using a gamma counter (Perkin Elmer Wizard2, Germany). All counts were standardized to the initial activity, and specific surface binding as well as specific internalization were calculated by subtracting the non-specific binding values obtained from the wells treated with an excess of 'cold' compound. Results were calculated and expressed as %AA/10^5 cells (% applied activity/10^5 cells).

Series [4] can be described thus: in vivo. To be noted: female, BALC/c nu/nu, mouse, iv, 150 pmol, total radioactivity. How it is done: (§2) PET/MR imaging was performed in 8-week-old female BALC/c nu/nu mice (Charles River, Germany) which were subcutaneously inoculated on the right upper flank with 10^6 cells (1:1 in PBS:Matrigel). Tumor growth was monitored, and once size was approx. 300-500 mm^3, 150 pmol of [^68Ga]Ga-BCY18469 (4 - 9 MBq) was injected intravenously via tail vein with subsequent imaging performed under isoflurane anesthesia. For the PET imaging experiments with blocking, an excess (15 nmol) of non-radiolabeled BCY18469 was injected 5 mins before the injection of 300 pmol (4 MBq) of the ^68Ga-labeled compound. PET imaging consisted of a dynamic scan from 0 to 60 min p.i. (30 frames), followed by non-triggered localizer and a 3-step whole body T1-weighed 3D MR-scan (PET/MR 3T, Bruker BioSpin, Germany). Additionally, a 2 h p.i. static image (10 min scan) was recorded, followed by the same MR scan protocol. Data was obtained via ParaVision 3.0 and reconstructed using a Maximum-Likelihood Expectation-Maximization (MLEM) algorithm at 0.5 mm for 18 iterations. Reconstructed data was analyzed with PMOD 3.7.

A further series deals with MCF-7 tumor xenograft. To be noted: mouse, in vivo. How it is done: as §2
The mark [5] stands for this setting: total radioactivity, Liver uptake.
Setting [6] is: 4°C, block with 10 µM non-labeled compound.

As for `CC(C)C[C@@H]1NC(=O)[C@@H]2CSCCC(=O)N3CN(CN(C3)C(=O)CCSC[C@H](NC(=O)[C@H](CC(=O)O)NC(=O)[C@H](CCCCNC(=N)N)NC(=O)[C@H](C)NC(=O)CN(C)C(=O)CN(C)C(=O)CN(C)C(=O)CN(C)C(=O)CN(C)C(=O)CN(C)C(=O)CN(C)C(=O)CN(C)C(=O)CN(C)C(=O)CN(C)C(=O)CCNC(=O)CN3CCN(CC(=O)O)CCN(CC(=O)O)CCN(CC(=O)O)CC3)C(=O)N3C[C@H](O)C[C@H]3C(=O)N[C@@H](CC3CCC3)C(=O)N[C@@H](C(C)C)C(=O)N[C@@H](CC(N)=O)C(=O)N3CCC[C@H]3C(=O)N[C@@H](CC(C)C)C(=O)N2)C(=O)CCSC[C@@H](C(N)=O)NC(=O)[C@H](CCCCNC(=N)N)NC(=O)[C@H](Cc2c[nH]c3ccccc23)NC(=O)[C@@H](CC(=O)O)NC(=O)[C@@H]2CCCN2C(=O)[C@H](Cc2c[nH]cn2)NC1=O` [[111In]In-BCY18469, metal not drawn] ({DOTA-βAla}-[Sar][Sar][Sar][Sar][Sar][Sar][Sar][Sar][Sar][Sar]A[hArg]DC[Hyp][Cba]VNPLCLHP[dD]W[hArg]C-NH2; linker 14-21-28 via TATA), the tissue uptake at 1 h in “in vivo [1]” (Bladder uptake) was 207 %ID/g; in the series “in vivo [1]” (Heart uptake), 0.03 %ID/g; in “in vivo [1]” (Kidneys uptake), 32 %ID/g; in the series “in vivo [1]” (Muscle uptake) it was 0.27 %ID/g; in “in vivo [1]” (Spleen uptake) it was 0.27 %ID/g; in “in vivo [1]” (Tail uptake), 0.28 %ID/g. Besides, the tissue uptake at 1 h is 0.13 %ID/g in “in vivo [1]” (setting [5]); 0.12 %ID/g in the series “in vivo [1]” (total radioactivity, Lungs uptake); 5.7 ± 1.5 %ID/g in “in vivo [1]” (total radioactivity, Tumor uptake). The tissue uptake at 24 h in the series “in vivo [1]” (Bladder uptake) was 4.2 %ID/g; in “in vivo [1]” (Heart uptake), 0.03 %ID/g; in the series “in vivo [1]” (Kidneys uptake), 17 %ID/g; in “in vivo [1]” (Lungs uptake), 0.01 %ID/g; in the series “in vivo [1]” (Muscle uptake) it was 0.02 %ID/g; in the series “in vivo [1]” (Spleen uptake) it was 0.4 %ID/g. The tissue uptake at 24 h in the series “in vivo [1]” (Tail uptake) is 0.07 %ID/g; in “in vivo [1]” (Tumor uptake), 2.3 %ID/g; in the series “in vivo [1]” (setting [5]) it was 0.05 %ID/g. In addition, in “in vivo [1]” (total radioactivity, Non-target organs uptake), the tissue uptake is not above 1 %ID/g. In the series with PC-3 tumor xenograft (1 h), this compound came in with a Kidneys uptake of 31.9 ± 3.4 %ID/g. The Tumor uptake in the series on PC-3 tumor xenograft (1 h) is on record as 5.72 ± 1.47 %ID/g; in the series with PC-3 tumor xenograft (24 h) it was 2.32 ± 0.50 %ID/g.
In the case of `CC(C)C[C@@H]1NC(=O)[C@@H]2CSCCC(=O)N3CN(CN(C3)C(=O)CCSC[C@H](NC(=O)[C@H](CC(=O)O)NC(=O)[C@H](CCCCNC(=N)N)NC(=O)[C@H](C)NC(=O)CN(C)C(=O)CN(C)C(=O)CN(C)C(=O)CN(C)C(=O)CN(C)C(=O)CN(C)C(=O)CN(C)C(=O)CN(C)C(=O)CN(C)C(=O)CN(C)C(=O)CCNC(=O)CN3CCN(CC(=O)O)CCN(CC(=O)O)CCN(CC(=O)O)CC3)C(=O)N3C[C@H](O)C[C@H]3C(=O)N[C@@H](CC3CCC3)C(=O)N[C@@H](C(C)C)C(=O)N[C@@H](CC(N)=O)C(=O)N3CCC[C@H]3C(=O)N[C@@H](CC(C)C)C(=O)N2)C(=O)CCSC[C@@H](C(N)=O)NC(=O)[C@H](CCCCNC(=N)N)NC(=O)[C@H](Cc2c[nH]c3ccccc23)NC(=O)[C@@H](CC(=O)O)NC(=O)[C@@H]2CCCN2C(=O)[C@H](Cc2c[nH]cn2)NC1=O` [[68Ga]Ga-BCY18469, metal not drawn] ({DOTA-βAla}-[Sar][Sar][Sar][Sar][Sar][Sar][Sar][Sar][Sar][Sar]A[hArg]DC[Hyp][Cba]VNPLCLHP[dD]W[hArg]C-NH2; linker 14-21-28 via TATA), the fraction unbound at 15 min in “in vitro [2]” is approximately 0.5. This compound also had an amount remaining at 72 h in “in vitro [3]” (human) of 94%. The same compound gave an amount remaining at 72 h in the series “in vitro [3]” (mouse) of 40%. Further, in the series on HT1080 cells (setting [6]), the “Cell Surface B 4°C” value came out at 0.03 ± 0.01 %AA/10^5 cells and the “Internalization B 4°C” value turned out to be 0.01 ± 0.00 %AA/10^5 cells. Further, in the series on HT1080 cells (4°C), the “Cell Surface 4°C” value came out at 0.47 ± 0.01 %AA/10^5 cells and the “Internalization 4°C” value stood at 0.05 ± 0.01 %AA/10^5 cells. In addition, in the series with HT1080 cells (37°C, 45 min, 30 nM), the “Cell Surface” value is 0.53 ± 0.03 %AA/10^5 cells and the Internalization is 0.18 ± 0.05 %AA/10^5 cells. For the same compound, in the series with HT1080 cells (37°C, block with 10 µM non-labeled compound), the “Internalization B” value was found to be 0.06 ± 0.00 %AA/10^5 cells. Besides, in the series “in vivo [4]” (Bladder uptake), the SUV worked out at 0.41 SUV. The SUV in “in vivo [4]” (Kidneys uptake) amounted to 3.15 SUV. In addition, the SUV in the series “in vivo [4]” (Liver uptake) is 1.13 SUV. For the same compound, in the series “in vivo [4]” (Tumor SUVbw), the SUV at 1 h worked out at 1.7 SUV and the SUV at 2 h came to 1.2 SUV. Also, in the series “in vivo [4]” (Tumor uptake), the SUV is 0.67 SUV. In the series with MCF-7 tumor xenograft, the “uptake in the tumor” value is given as “no uptake”.

What is called tissue uptake is the share of the injected amount in each gram of the tissue. What is called fraction unbound is the share of the substance not bound to proteins or other matrix. Broadly, the share remaining is what is left of the initial amount, in per cent.
